Source: paper PMC8967717 (Nature, 2022)

B1: XGv289 (antibody, V domains shown)
VH: QVQLVQSGAEVKKPGASLKVSCRASGYTFTSHFIHWVRQAPGQGLEWMGIINPSGGASYAQNFRDRVTMTTDPSTSTVYMELGSLRSEDTAVYYCARAEGSSWLGWFDPWGQGTLVTVSS
VL: QSVLTQPPSASGTPGQRVTIPCSGSSSNIGNNYVYWYQQLPGTAPKLLVYGNNQRPSGVPDRFSVSKSGTSASLAISGLRSEDEADYYCAAWDDGLSGSGWVFGGGTKLTVL
B2: XGv282 (antibody, V domains shown)
VH: QVQLVQSGAEVKKPGSSVKVSCKASGDTFSSYTFSWVRQAPGQGLEWMGRSIPIVGKAIYAQEFQGRVTISADRSTTTVYMELSSLRSDDTAVYYCARDQSGFDFFYYDHWGQGTLVAVSS
VL: QSVLTQPPSASGTPGQRVTISCSGSGSNIGSNTINWYQQLPGTAPKVLIYRNNERPSGVPDRFSGSKSGTSASLTISGLQSEDEAYYHCAAWDDSLNGPVFGGGTKLTVL

What was measured:
[1] = target: SARS-CoV-2 wild-type spike receptor-binding domain (SARS-CoV-2, WT (MN908947), UniProt P0DTC2); assay: BLI; conditions: both partners purified
[2] = target: SARS-CoV-2 wild-type spike N-terminal domain (SARS-CoV-2, WT (MN908947), UniProt P0DTC2); assay: ELISA; conditions: both partners purified

Binder | Kd [1] [nM] | binding result [2]
B1 | 0.515 | no binding
B2 | 0.344 | no binding
